Publication PMC10290134, “Development of a one-shot dual aptamer-based fluorescence nanosensor for rapid, sensitive, and label-free detection of periostin”

T1: Periostin (UniProt Q15063 496-836)
T1 sequence: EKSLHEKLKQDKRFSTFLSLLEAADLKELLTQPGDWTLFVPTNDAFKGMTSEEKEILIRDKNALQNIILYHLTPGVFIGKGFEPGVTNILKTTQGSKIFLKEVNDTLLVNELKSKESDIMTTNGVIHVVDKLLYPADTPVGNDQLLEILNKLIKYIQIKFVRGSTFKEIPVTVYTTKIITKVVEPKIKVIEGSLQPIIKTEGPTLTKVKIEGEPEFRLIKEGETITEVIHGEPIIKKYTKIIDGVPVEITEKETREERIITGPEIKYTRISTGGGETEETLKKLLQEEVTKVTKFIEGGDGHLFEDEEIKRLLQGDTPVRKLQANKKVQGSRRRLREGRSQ

B1: PL5 (ssDNA)
DNA: CACCTAATACGACTCACTATAGCGGATCCGATTCGAACCAGAATATTAGTCGCAAAATCTTGATGCAGTCACTGGCTCGAACAAGCTTGC
B2: PL5trunc (ssDNA)
DNA: TAATACGACTCACTATAGCGGATCCGATTCGAACCAGAATATTAGTCGCAAAATCTTGATG
B3: PL2 (ssDNA)
DNA: CACCTAATACGACTCACTATAGCGGATCCGAAAGTCAACGCCAGATAAAAACAATTTGCCTTCCTCCGCCCCTGGCTCGAACAAGCTTGC

target: T1, Periostin; test: magnetic bead fluorescence assay; 5 mM Mg2+; 20 mM Tris-HCl pH 8.0, 100 mM NaCl, 5 mM KCl, 5 mM MgCl2, 0.05% Tween 20, 25 °C, 1 h; His-tagged periostin on His-tag magnetic beads; details: protein: recombinant; tags: 6xHis (pET-28a); label: 5' Cy3

Binder | Kd [nM]
B1 | 50.1
B2 | 37
B3 | 45.7
TCAACGCCAGATAAAAACAATTTGCCTTCCTCCGCCCCTGGCTCGAA (ssDNA) [PL2trunc] | 10.1
